We go through 19 molecules from patent US20100004431A1 (Xencor, published 2010).

B1: anti-CD25 H1.12L1.56 (antibody, V domains shown)
VH: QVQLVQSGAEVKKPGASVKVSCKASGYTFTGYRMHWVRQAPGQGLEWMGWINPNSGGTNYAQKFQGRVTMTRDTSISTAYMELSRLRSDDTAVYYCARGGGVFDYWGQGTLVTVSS
VL: QIVLTQSPATLSLSPGERATLSCRASQSVSYLHWFQQKPGQSPQLLIYTTSNRATGIPARFSGSGSGTDFTLTISSLEPEDFAVYYCHQRSTYPLTFGSGTKLEIK
B2: anti-CD25 H1.22L1.43 (antibody, V domains shown)
VH: QVQLVQSGAEVKKPGASVKVSCKASGYTFTSYRMHWVRQAPGQGLEWMGWINPNSGGTNYAQKFQGRVTITRDTSISTAYMELSRLRSDDTAVYYCARGGGVFDYWGQGTLVTVSS
VL: EIVLTQSPATLSLSPGERATLSCRASQSVSYLHWYQQKPGQAPRLLIYTTSNRATGIPARFSGSGSGTDYTLTISSLQPEDFAVYYCHQRSTYPLTFGSGTKLEIK
B3: anti-CD25 H1.12L1.43 (antibody, V domains shown)
VH: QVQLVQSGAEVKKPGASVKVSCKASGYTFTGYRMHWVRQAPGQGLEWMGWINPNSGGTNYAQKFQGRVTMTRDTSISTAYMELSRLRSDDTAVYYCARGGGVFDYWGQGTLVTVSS
VL: EIVLTQSPATLSLSPGERATLSCRASQSVSYLHWYQQKPGQAPRLLIYTTSNRATGIPARFSGSGSGTDYTLTISSLQPEDFAVYYCHQRSTYPLTFGSGTKLEIK
B4: anti-CD25 H1.22L1.20 (antibody, V domains shown)
VH: QVQLVQSGAEVKKPGASVKVSCKASGYTFTSYRMHWVRQAPGQGLEWMGWINPNSGGTNYAQKFQGRVTITRDTSISTAYMELSRLRSDDTAVYYCARGGGVFDYWGQGTLVTVSS
VL: EIVLTQSPATLSLSPGERATLSCRASQSVSYLHWYQQKPGQAPRLLIYTTSNRATGIPARFSGSGSGTDFTLTISSLEPEDFAVYYCHQRSTYPLTFGSGTKLEIK
B5: anti-CD25 H1.14L1.43 (antibody, V domains shown)
VH: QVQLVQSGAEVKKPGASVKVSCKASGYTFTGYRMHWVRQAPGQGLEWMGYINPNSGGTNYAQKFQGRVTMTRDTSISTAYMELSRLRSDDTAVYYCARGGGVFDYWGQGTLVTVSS
VL: EIVLTQSPATLSLSPGERATLSCRASQSVSYLHWYQQKPGQAPRLLIYTTSNRATGIPARFSGSGSGTDYTLTISSLQPEDFAVYYCHQRSTYPLTFGSGTKLEIK
B6: anti-CD25 H1.23L1.56 (antibody, V domains shown)
VH: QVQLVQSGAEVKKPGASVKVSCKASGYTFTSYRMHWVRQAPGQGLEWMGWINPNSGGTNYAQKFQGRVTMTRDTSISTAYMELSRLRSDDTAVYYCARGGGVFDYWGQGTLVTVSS
VL: QIVLTQSPATLSLSPGERATLSCRASQSVSYLHWFQQKPGQSPQLLIYTTSNRATGIPARFSGSGSGTDFTLTISSLEPEDFAVYYCHQRSTYPLTFGSGTKLEIK
B7: anti-CD25 H1.22L1.48 (antibody, V domains shown)
VH: QVQLVQSGAEVKKPGASVKVSCKASGYTFTSYRMHWVRQAPGQGLEWMGWINPNSGGTNYAQKFQGRVTITRDTSISTAYMELSRLRSDDTAVYYCARGGGVFDYWGQGTLVTVSS
VL: EIVLTQSPATLSLSPGERATLSCRASQSVSYMHWYQQKPGQAPRLLIYTTSNRATGIPARFSGSGSGTDFTLTISSLEPEDFAVYYCHQRSTYPLTFGSGTKLEIK
B8: anti-CD25 H1.22L1.56 (antibody, V domains shown)
VH: QVQLVQSGAEVKKPGASVKVSCKASGYTFTSYRMHWVRQAPGQGLEWMGWINPNSGGTNYAQKFQGRVTITRDTSISTAYMELSRLRSDDTAVYYCARGGGVFDYWGQGTLVTVSS
VL: QIVLTQSPATLSLSPGERATLSCRASQSVSYLHWFQQKPGQSPQLLIYTTSNRATGIPARFSGSGSGTDFTLTISSLEPEDFAVYYCHQRSTYPLTFGSGTKLEIK
B9: anti-CD25 H1.14L1.56 (antibody, V domains shown)
VH: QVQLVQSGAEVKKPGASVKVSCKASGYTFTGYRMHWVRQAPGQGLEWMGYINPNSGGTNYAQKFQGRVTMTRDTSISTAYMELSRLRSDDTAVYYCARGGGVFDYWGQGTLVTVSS
VL: QIVLTQSPATLSLSPGERATLSCRASQSVSYLHWFQQKPGQSPQLLIYTTSNRATGIPARFSGSGSGTDFTLTISSLEPEDFAVYYCHQRSTYPLTFGSGTKLEIK
B10: anti-CD25 H1L1.43 (antibody, V domains shown)
VH: QVQLVQSGAEVKKPGASVKVSCKASGYTFTSYRMHWVRQAPGQGLEWMGYINPSTGYTEYNQKFQGRVTITADKSISTAYMELSRLRSDDTAVYYCARGGGVFDYWGQGTLVTVSS
VL: EIVLTQSPATLSLSPGERATLSCRASQSVSYLHWYQQKPGQAPRLLIYTTSNRATGIPARFSGSGSGTDYTLTISSLQPEDFAVYYCHQRSTYPLTFGSGTKLEIK
notes: also called VL combination variant L1.43 paired with H1
B11: anti-CD25 H1L1.48 (antibody, V domains shown)
VH: QVQLVQSGAEVKKPGASVKVSCKASGYTFTSYRMHWVRQAPGQGLEWMGYINPSTGYTEYNQKFQGRVTITADKSISTAYMELSRLRSDDTAVYYCARGGGVFDYWGQGTLVTVSS
VL: EIVLTQSPATLSLSPGERATLSCRASQSVSYMHWYQQKPGQAPRLLIYTTSNRATGIPARFSGSGSGTDFTLTISSLEPEDFAVYYCHQRSTYPLTFGSGTKLEIK
notes: also called VL combination variant L1.48 paired with H1
B12: anti-CD25 H1L1.20 (antibody, V domains shown)
VH: QVQLVQSGAEVKKPGASVKVSCKASGYTFTSYRMHWVRQAPGQGLEWMGYINPSTGYTEYNQKFQGRVTITADKSISTAYMELSRLRSDDTAVYYCARGGGVFDYWGQGTLVTVSS
VL: EIVLTQSPATLSLSPGERATLSCRASQSVSYLHWYQQKPGQAPRLLIYTTSNRATGIPARFSGSGSGTDFTLTISSLEPEDFAVYYCHQRSTYPLTFGSGTKLEIK
notes: also called VL combination variant L1.20 paired with H1
B13: anti-CD25 H1L1.56 (antibody, V domains shown)
VH: QVQLVQSGAEVKKPGASVKVSCKASGYTFTSYRMHWVRQAPGQGLEWMGYINPSTGYTEYNQKFQGRVTITADKSISTAYMELSRLRSDDTAVYYCARGGGVFDYWGQGTLVTVSS
VL: QIVLTQSPATLSLSPGERATLSCRASQSVSYLHWFQQKPGQSPQLLIYTTSNRATGIPARFSGSGSGTDFTLTISSLEPEDFAVYYCHQRSTYPLTFGSGTKLEIK
notes: the fourth VL chain; also called VL combination variant L1.56 paired with H1
B14: anti-CD25 H1.14L1.48 (antibody, V domains shown)
VH: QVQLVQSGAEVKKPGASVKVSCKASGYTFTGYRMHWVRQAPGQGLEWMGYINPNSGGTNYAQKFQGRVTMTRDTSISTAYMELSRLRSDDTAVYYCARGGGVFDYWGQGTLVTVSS
VL: EIVLTQSPATLSLSPGERATLSCRASQSVSYMHWYQQKPGQAPRLLIYTTSNRATGIPARFSGSGSGTDFTLTISSLEPEDFAVYYCHQRSTYPLTFGSGTKLEIK
B15: anti-CD25 H1.23L1.48 (antibody, V domains shown)
VH: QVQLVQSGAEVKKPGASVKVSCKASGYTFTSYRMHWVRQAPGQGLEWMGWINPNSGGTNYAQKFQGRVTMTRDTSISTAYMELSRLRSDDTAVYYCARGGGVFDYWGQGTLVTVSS
VL: EIVLTQSPATLSLSPGERATLSCRASQSVSYMHWYQQKPGQAPRLLIYTTSNRATGIPARFSGSGSGTDFTLTISSLEPEDFAVYYCHQRSTYPLTFGSGTKLEIK
B16: anti-CD25 H1.23L1.20 (antibody, V domains shown)
VH: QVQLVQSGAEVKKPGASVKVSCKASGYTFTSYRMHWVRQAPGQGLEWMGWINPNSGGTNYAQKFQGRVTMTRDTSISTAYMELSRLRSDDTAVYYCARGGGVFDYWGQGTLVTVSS
VL: EIVLTQSPATLSLSPGERATLSCRASQSVSYLHWYQQKPGQAPRLLIYTTSNRATGIPARFSGSGSGTDFTLTISSLEPEDFAVYYCHQRSTYPLTFGSGTKLEIK
B17: anti-CD25 H1.1L1 (antibody, V domains shown)
VH: QVQLVQSGAEVKKPGASVKVSCKASGYTFTSYRMHWVRQAPGQGLEWMGYINPSTGYTEYNQKFQGRVTITRDKSISTAYMELSRLRSDDTAVYYCARGGGVFDYWGQGTLVTVSS
VL: QIVLTQSPATLSLSPGERATLSCRASSSISYMHWFQQKPGQSPQLLIYTTSNLASGVPARFSGSGSGTDYTLTISSLQPEDFAVYYCHQRSTYPLTFGSGTKLEIK
notes: Single variant in the anti-CD25 H1L1 background; also called VH A71R single variant
B18: anti-CD25 H1.4L1 (antibody, V domains shown)
VH: QVQLVQSGAEVKKPGASVKVSCKASGYTFTSYRMHWVRQAPGQGLEWMGYINPSTGYTEYNQKFQGRVTITADTSISTAYMELSRLRSDDTAVYYCARGGGVFDYWGQGTLVTVSS
VL: QIVLTQSPATLSLSPGERATLSCRASSSISYMHWFQQKPGQSPQLLIYTTSNLASGVPARFSGSGSGTDYTLTISSLQPEDFAVYYCHQRSTYPLTFGSGTKLEIK
notes: Single variant in the anti-CD25 H1L1 background; also called VH K73T single variant
B19: anti-CD25 H1L1.5 (antibody, V domains shown)
VH: QVQLVQSGAEVKKPGASVKVSCKASGYTFTSYRMHWVRQAPGQGLEWMGYINPSTGYTEYNQKFQGRVTITADKSISTAYMELSRLRSDDTAVYYCARGGGVFDYWGQGTLVTVSS
VL: EIVLTQSPATLSLSPGERATLSCRASSSISYMHWFQQKPGQSPQLLIYTTSNLASGVPARFSGSGSGTDYTLTISSLQPEDFAVYYCHQRSTYPLTFGSGTKLEIK
notes: Single variant in the anti-CD25 H1L1 background; also called VL Q1E single variant

Usually Kd stands for the equilibrium constant for the complex coming apart. Read a high Kd as weaker binding. A word on the koff: it is the rate constant with which the complex falls apart. The low end stands for slow dissociation, the high end for fast dissociation. One may read the kon as a measure of how fast the partners come together. Higher therefore signals faster complex formation.

The target of one experiment is T1, CD25 (R&D systems cat. #223-2A/CF) (UniProt P01589 22-213, limits assumed).
T1 construct: Bought soluble protein
T1 sequence (looked up): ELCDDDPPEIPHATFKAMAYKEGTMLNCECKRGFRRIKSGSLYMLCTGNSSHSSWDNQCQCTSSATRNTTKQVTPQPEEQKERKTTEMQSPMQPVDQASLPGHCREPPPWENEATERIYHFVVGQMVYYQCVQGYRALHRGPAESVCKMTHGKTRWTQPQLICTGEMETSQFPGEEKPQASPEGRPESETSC
The experiment can be described thus: Biacore (SPR); antibody captured on Protein A, CD25 injected. (In general: SPR reads the build-up and loss of mass on a sensor chip optically.)
Protocol: (§1) Binding was measured by injection of two-fold serial dilutions of CD25 (0 nM to 50 nM; R&D systems) in buffer at 25° C. with a flow rate of 25-30 μL/min for 2 min followed by a dissociation phase of 4-5 min. Association rates (kₒₙ) and dissociation rates (koff) were calculated using a simple one-to-one Langmuir binding model (BIAcore Evaluation Software version 3.2). The equilibrium dissociation constant (Kd) was calculated as the ratio of koff/kₒₙ).
For B1, the “Fold change in Kd vs. H0L0” value came to 1.2 fold, the Kd worked out at 0.21 nM, the koff turned out to be 0.00018 s⁻¹ and the association rate constant (kon) worked out at 850000 M⁻¹ s⁻¹.
Taken in the same sequence, the figures for B2 were -1.1 fold, 0.3 nM, 0.00019 s⁻¹ and 640000 M⁻¹ s⁻¹.
Taken in the same sequence, the figures for B3 were 1.4 fold, 0.19 nM, 0.00014 s⁻¹ and 720000 M⁻¹ s⁻¹.
On the same counts, the results for B4 are 1.1 fold, 0.24 nM, 0.00018 s⁻¹ and 720000 M⁻¹ s⁻¹.
Take B5: the “Fold change in Kd vs. H0L0” value is -1.3 fold, binding was put at a Kd of 0.32 nM, the koff is 0.00022 s⁻¹ and the kon stood at 670000 M⁻¹ s⁻¹.
On the same counts, the results for B6 are 1.2 fold, 0.21 nM, 0.0002 s⁻¹ and 950000 M⁻¹ s⁻¹.
Taken in the same sequence, the figures for B7 were 1.5 fold, 0.17 nM, 0.00014 s⁻¹ and 780000 M⁻¹ s⁻¹.
On the same counts, the results for B8 are 1.2 fold, 0.22 nM, 0.00022 s⁻¹ and 970000 M⁻¹ s⁻¹.
For B9, the “Fold change in Kd vs. H0L0” value is 1.6 fold; the affinity, expressed as Kd, was 0.16 nM; the koff turned out to be 0.00017 s⁻¹; the on-rate (kon) came out at 1e+06 M⁻¹ s⁻¹.
On the same counts, the results for B10 are -5 fold, 1.3 nM, 0.00053 s⁻¹ and 410000 M⁻¹ s⁻¹.
Take B11: the “Fold change in Kd vs. H0L0” value is -2.4 fold, the dissociation constant (Kd) worked out at 0.63 nM, the koff was 0.00031 s⁻¹ and the kon turned out to be 500000 M⁻¹ s⁻¹.
B12: the “Fold change in Kd vs. H0L0” value was -4.2 fold, the Kd turned out to be 1.1 nM, the off-rate constant (koff) worked out at 0.00048 s⁻¹ and the on-rate constant (kon) is 430000 M⁻¹ s⁻¹.
Taken in the same sequence, the figures for B13 were -5 fold, 1.3 nM, 0.0007 s⁻¹ and 540000 M⁻¹ s⁻¹.
With B14, the “Fold change in Kd vs. H0L0” value turned out to be 1.2 fold, the dissociation constant Kd was 0.21 nM, the dissociation rate constant (koff) stood at 0.00017 s⁻¹ and the association rate constant (kon) came out at 790000 M⁻¹ s⁻¹.
Turning to B15, the “Fold change in Kd vs. H0L0” value worked out at 1.1 fold, the dissociation constant Kd was 0.23 nM, the koff is 0.00018 s⁻¹ and the on-rate constant (kon) amounted to 750000 M⁻¹ s⁻¹.
As to B16, the “Fold change in Kd vs. H0L0” value worked out at 1.2 fold; the affinity, expressed as Kd, was 0.22 nM; the off-rate (koff) worked out at 0.00016 s⁻¹; the on-rate constant (kon) turned out to be 710000 M⁻¹ s⁻¹.

Another experiment has as its target T1, CD25 (R&D systems cat. #223-2A/CF). The experiment is described as above. This is another data set of the same source.
Protocol: as §1
As for B17, the “Fold change in Kd vs. H1L1” value came to 2 fold; the affinity, expressed as Kd, was 0.16 nM; the koff is 0.00031 s⁻¹; the on-rate constant (kon) worked out at 1.9e+06 M⁻¹ s⁻¹.
Taken in the same sequence, the figures for B18 were 1.1 fold, 0.3 nM, 0.0006 s⁻¹ and 2e+06 M⁻¹ s⁻¹.
With B19, the “Fold change in Kd vs. H1L1” value worked out at 1.1 fold, binding was put at a Kd of 0.29 nM, the koff came out at 0.00052 s⁻¹ and the kon worked out at 1.8e+06 M⁻¹ s⁻¹.
